Data published in patent US7326551B2, “Cloning and sequencing of pyruvate decarboxylase (PDC) genes from bacteria and uses therefor” (University of Florida Research Foundation, Inc., priority 2001, dated 2008).

Key:
Experiment in all cases: PDC activity by ADH-coupled assay, kinetic parameters for pyruvate
[1] = substrate: CC(=O)C(=O)O; assay type: biochemical, Zymobacter palmae; details: other: ZpaPDC
Description: (i) Purification of Z. palmae PDC—Z. palmae and E. coli DH5α (pJAM3440) cells were grown to stationary phase and harvested by centrifugation at 10,000×g (10 min, 4° C.). Cells (12 to 15 g wet wt) were resuspended in 6 volumes of 50 mM sodium phosphate buffer at pH 6.5 containing 1 mM TPP and 1 mM MgCl2 (buffer A) and passed through a chilled French pressure cell at 20,000 lb per in^2. Cell debris was removed by centrifugation at 16,000×g (20 min, 4° C.). Cell lysate was heated to 60° C. for 30 min, chilled on ice for 15 min, and centrifuged at 16,000×g (30 min at 4° C.) to remove denatured polypeptides. […]
PDC Quantitation and Enzyme Activity Assay—Polypeptide concentration was determined using Bradford reagent with bovine serum albumin as the standard (BioRad). PDC activity was measured by the coupled assay with baker's yeast alcohol dehydrogenase (ADH) (Sigma-Aldrich, St. Louis, Mo.) as previously described (11). The reaction mixture contained 0.15 mM NADH, 5 mM MgCl2, 0.1 mM TPP, 5 mM pyruvate, and 10 U ADH in 50 mM sodium citrate buffer at pH 5.0 and was measured at 25° C. unless otherwise indicated. […]
(§1) As a further comparison, the kinetic constants of all four bacterial PDC polypeptides were determined at their pH optimum as well as at pH 7.0 (Table 3). […]

[2] = substrate: CC(=O)C(=O)O; assay type: biochemical, Acetobacter pasteurianus; details: other: ApaPDC
Text: (ii) Purification of A. pasteurianus PDC—PDC was purified from A. pasteurianus and E. coli ER1648(pJAM304) using heat-treatment, Q-Sepharose, Superdex 200, and hydroxyapatite as described for the Z. palmae PDC with the following modifications. Cells were passed through a French pressure cell at 30,000 lb per in^2. The PDC activity, which was eluted at 0.17 to 0.26 M NaCl from the Q-Sepharose column, was pooled and concentrated by dialysis against PEG8000 prior to loading onto the Superdex 200 column.
(§2) PDC Quantitation and Enzyme Activity Assay—Polypeptide concentration was determined using Bradford reagent with bovine serum albumin as the standard (BioRad). PDC activity was measured by the coupled assay with baker's yeast alcohol dehydrogenase (ADH) (Sigma-Aldrich, St. Louis, Mo.) as previously described (11). The reaction mixture contained 0.15 mM NADH, 5 mM MgCl2, 0.1 mM TPP, 5 mM pyruvate, and 10 U ADH in 50 mM sodium citrate buffer at pH 5.0 and was measured at 25° C. unless otherwise indicated. One unit of enzyme activity is defined as the amount of enzyme that generates 1 μmol of acetaldehyde per min.
as §1

[3] = substrate: CC(=O)C(=O)O; assay type: biochemical, Zymomonas mobilis; details: other: ZmoPDC
Description: All procedures were performed at room temperature and all purification buffers contained 1 mM TPP and 1 mM MgCl2 unless otherwise indicated. S. ventriculi PDC was purified from recombinant E. coli BL21-CodonPlus-RIL(pJAM419) and Rosetta (DE3)(pRARE, pJAM419) as previously described (45). Z. mobilis PDC was purified from recombinant E. coli DH5α (pLOI276) (11) using thermal treatment, Q-Sepharose, and Superdex 200 procedures as described below for the Z. palmae PDC with the exception that the Z. mobilis PDC was eluted from Q-Sepharose at 0.22 to 0.32 M NaCl.
as §2, §1

[4] = pH 7.0, normal Michaelis-Menten kinetics, pH 7.0, 25.0 °C

B1: Zymobacter palmae pyruvate decarboxylase (ZpaPDC), recombinant, wild type, SEQ ID NO:2 (Zymobacter palmae) (protein)
chain: MYTVGMYLAERLAQIGLKHHFAVAGDYNLVLLDQLLLNKDMEQVYCCNELNCGFSAEGYARARGAAAAIVTFSVGAISAMNAIGGAYAENLPVILISGSPNTNDYGTGHILHHTIGTTDYNYQLEMVKHVTCARESIVSAEEAPAKIDHVIRTALRERKPAYLEIACNVAGAECVRPGPINSLLRELEVDQTSVTAAVDAAVEWLQDRQNVVMLVGSKLRAAAAEKQAVALADRLGCAVTIMAAEKGFFPEDHPNFRGLYWGEVSSEGAQELVENADAILCLAPVFNDYATVGWNSWPKGDNVMVMDTDRVTFAGQSFEGLSLSTFAAALAEKAPSRPATTQGTQAPVLGIEAAEPNAPLTNDEMTRQIQSLITSDTTLTAETGDSWFNASRMPIPGGARVELEMQWGHIGWSVPSAFGNAVGSPERRHIMMVGDGSFQLTAQEVAQMIRYEIPVIIFLINNRGYVIEIAIHDGPYNYIKNWNYAGLIDVFNDEDGHGLGLKASTGAELEGAIKKALDNRRGPTLIECNIAQDDCTETLIAWGKRVAATNSRKPQA
notes: coupled test with yeast ADH
Km ([1]; pH 6.0, 25° C., normal Michaelis-Menten kinetics, pH 6.0, 25.0 °C): 240 µM
Km ([1]; pH 7.0, normal Michaelis-Menten kinetics, pH 7.0): 710 µM

B2: Acetobacter pasteurianus pyruvate decarboxylase (ApaPDC), recombinant, wild type, SEQ ID NO:4 (Acetobacter pasteurianus) (protein)
chain: MTYTVGMYLAERLVQIGLKHHFAVGGDYNLVLLDQLLLNKDMKQIYCCNELNCGFSAEGYARSNGAAAAVVTFSVGAISAMNALGGAYAENLPVILISGAPNSNDQGTGHILHHTIGKTDYSYQLEMARQVTCAAESITDAHSAPAKIDHVIRTALRERKPAYLDIACNIASEPCVRPGPVSSLLSEPEIDHTSLKAAVDATVALLKNRPAPVMLLGSKLRAANALAATETLADKLQCAVTIMAAAKGFFPEDHAGFRGLYWGEVSNPGVQELVETSDALLCIAPVFNDYSTVGWSGMPKGPNVILAEPDRVTVDGRAYDGFTLRAFLQALAEKAPARPASAQKSSVPTCSLTATSDEAGLTNDEIVRHINALLTSNTTLVAETGDSWFNAMRMTLAGARVELEMQWGHIGWSVPSAFGNAMGSQDRQHVVMVGDGSFQLTAQEVAQMVRYELPVIIFLINNRGYVIEIAIHDGPYNYIKNWDYAGLMEVFNAGEGHGLGLKATTPKELTEAIARAKANTRGPTLIECQIDRTDCTDMLVQWGRKVASTNARKTTLA
notes: coupled test with yeast ADH
Km ([2]; pH 5.0, 25° C., normal Michaelis-Menten kinetics, pH 5.0): 390 µM
Km [2, 4]: 5100 µM

B3: Zymomonas mobilis pyruvate decarboxylase (ZmoPDC), recombinant, wild type, SEQ ID NO:8 (Zymomonas mobilis subsp. mobilis ZM4 = ATCC 31821) (protein)
chain: MSYTVGTYLAERLVQIGLKHHFAVAGDYNLVLLDNLLLNKNMEQVYCCNELNCGFSAEGYARAKGAAAAVVTYSVGALSAFDAIGGAYAENLPVILISGAPNNNDHAAGHVLHHALGKTDYHYQLEMAKNITAAAEAIYTPEEAPAKIDHVIKTALREKKPVYLEIACNIASMPCAAPGPASALFNDEASDEASLNAAVEETLKFIANRDKVAVLVGSKLRAAGAEEAAVKFADALGGAVATMAAAKSFFPEENPHYIGTSWGEVSYPGVEKTMKEADAVIALAPVFNDYSTTGWTDIPDPKKLVLAEPRSVVVNGVRFPSVHLKDYLTRLAQKVSKKTGALDFFKSLNAGELKKAAPADPSAPLVNAEIARQVEALLTPNTTVIAETGDSWFNAQRMKLPNGARVEYEMQWGHIGWSVPAAFGYAVGAPERRNILMVGDGSFQLTAQEVAQMVRLKLPVIIFLINNYGYTIEVMIHDGPYNNIKNWDYAGLMEVFNGNGGYDSGAGKGLKAKTGGELAEAIKVALANTDGPTLIECFIGREDCTEELVKWGKRVAAANSRKPVNKLL
notes: coupled test with yeast ADH
Km ([3]; pH 6.0, normal Michaelis-Menten kinetics, pH 6.0, 25.0 °C): 430 µM
Km [3, 4]: 940 µM
